Data as given in publication PMC5777263.

Tests used:
[1] = target: Cupriavidus metallidurans Betaproteobacteria proteasome homolog (Cm-BPH) (Cupriavidus metallidurans); test: negative-stain electron microscopy; 0.1 mg/ml protein, 1% uranyl acetate, particles classified and averaged (EMAN2)
[2] = target: Cupriavidus metallidurans Betaproteobacteria proteasome homolog (Cm-BPH) (Cupriavidus metallidurans); test: AUC + SEC-MALS; sedimentation velocity: 0.5 mg/ml protein in buffer A, 20 °C, 40,000 rpm; SEC-coupled multiangle light scattering; self-assembly
[3] = target: Cupriavidus metallidurans Betaproteobacteria proteasome homolog (Cm-BPH) (Cupriavidus metallidurans); test: crystal structure; Cm-BPH, space group P6, 2.1 Å, two monomers in the ASU; dodecamer called non-native, malonate molecules intercalated in the intersubunit clefts
[4] = target: Cupriavidus metallidurans Betaproteobacteria proteasome homolog (Cm-BPH) (Cupriavidus metallidurans); test: SEC-SAXS; Shodex Kw-403 column, 20 °C, 20 mM HEPES-NaOH pH 8.0, 150 mM NaCl, 2 mM TCEP, 1% sucrose; Cm-BPH 8.25 mg/ml, Td-BPH 15 mg/ml; profiles fitted with dodecameric and tetradecameric crystal models (FoXS)
[5] = target: Thiobacillus denitrificans Betaproteobacteria proteasome homolog (Td-BPH) (Thiobacillus denitrificans); test: negative-stain electron microscopy; 0.1 mg/ml protein, 1% uranyl acetate, particles classified and averaged (EMAN2)
[6] = target: Thiobacillus denitrificans Betaproteobacteria proteasome homolog (Td-BPH) (Thiobacillus denitrificans); test: crystal structure; Td-BPH apo: hexagonal form P6(1)22 (100 mM sodium acetate pH 4.8, 1.2 M sodium nitrate) and orthorhombic form P2(1)2(1)2(1) (100 mM HEPES-NaOH pH 7.0, 600 mM NaF), 2.3 Å
[7] = target: Thiobacillus denitrificans Betaproteobacteria proteasome homolog (Td-BPH) (Thiobacillus denitrificans); test: AUC + SEC-MALS; sedimentation velocity: 0.5 mg/ml protein in buffer A, 20 °C, 40,000 rpm; SEC-coupled multiangle light scattering; self-assembly
[8] = target: Thiobacillus denitrificans Betaproteobacteria proteasome homolog (Td-BPH) (Thiobacillus denitrificans); test: SEC-SAXS; Shodex Kw-403 column, 20 °C, 20 mM HEPES-NaOH pH 8.0, 150 mM NaCl, 2 mM TCEP, 1% sucrose; Cm-BPH 8.25 mg/ml, Td-BPH 15 mg/ml; profiles fitted with dodecameric and tetradecameric crystal models (FoXS)

| stoichiometry N (subunits per ring) [1] | stoichiometry N [2] | stoichiometry N [3] | stoichiometry N [4] | stoichiometry N (subunits per ring) [5] | stoichiometry N [6] | stoichiometry N [7] | stoichiometry N [8] | Substance |
| --- | --- | --- | --- | --- | --- | --- | --- | --- |
| 7 | 13.8 subunits | 12 subunits | 14 subunits | – | – | – | – | Cupriavidus metallidurans Betaproteobacteria proteasome homolog (Cm-BPH) (enzyme) |
| – | – | – | – | 7 | 14 subunits | 14 subunits | 14 subunits | Thiobacillus denitrificans Betaproteobacteria proteasome homolog (Td-BPH) (enzyme) |
